The test addresses SOX6, full-length, yeast two-hybrid fusion (UniProt P35712). As to the kind of experiment: yeast two-hybrid (β-galactosidase liquid assay). Conditions: S. cerevisiae Y187; SOX6 in pGBT9 (BD), SHOX2 mutant in pACT2 (AD); CRPG as substrate; parent: est. 100; read off a plot.

SOX6, full-length, yeast two-hybrid fusion, sequence (P35712 whole entry, the tested form may be a part): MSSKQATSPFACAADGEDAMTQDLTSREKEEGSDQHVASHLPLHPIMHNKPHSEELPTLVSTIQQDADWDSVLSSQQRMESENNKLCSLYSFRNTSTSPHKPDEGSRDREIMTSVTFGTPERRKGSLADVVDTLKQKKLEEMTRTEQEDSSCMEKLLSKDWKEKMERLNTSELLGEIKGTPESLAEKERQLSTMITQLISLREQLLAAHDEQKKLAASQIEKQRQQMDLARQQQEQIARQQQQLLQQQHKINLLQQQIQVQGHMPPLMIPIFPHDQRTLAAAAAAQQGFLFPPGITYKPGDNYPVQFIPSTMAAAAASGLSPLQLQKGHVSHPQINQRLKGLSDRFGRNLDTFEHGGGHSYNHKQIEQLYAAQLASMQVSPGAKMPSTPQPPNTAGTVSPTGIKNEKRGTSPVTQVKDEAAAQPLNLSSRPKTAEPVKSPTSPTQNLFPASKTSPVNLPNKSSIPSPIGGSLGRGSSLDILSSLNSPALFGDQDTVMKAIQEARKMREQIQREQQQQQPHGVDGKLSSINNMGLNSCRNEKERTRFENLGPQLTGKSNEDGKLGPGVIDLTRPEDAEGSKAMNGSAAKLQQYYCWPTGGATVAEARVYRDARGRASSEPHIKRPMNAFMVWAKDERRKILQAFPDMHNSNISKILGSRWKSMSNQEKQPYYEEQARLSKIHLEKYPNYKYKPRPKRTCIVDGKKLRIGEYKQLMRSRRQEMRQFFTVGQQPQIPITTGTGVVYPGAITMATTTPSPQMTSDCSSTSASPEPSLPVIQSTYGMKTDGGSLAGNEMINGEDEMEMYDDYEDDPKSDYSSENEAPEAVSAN
SHOX2a (called SHOX2 in the paper), full-length, yeast two-hybrid fusion, O60902-1 R196C, sequence (O60902 whole entry R196C, the tested form may be a part): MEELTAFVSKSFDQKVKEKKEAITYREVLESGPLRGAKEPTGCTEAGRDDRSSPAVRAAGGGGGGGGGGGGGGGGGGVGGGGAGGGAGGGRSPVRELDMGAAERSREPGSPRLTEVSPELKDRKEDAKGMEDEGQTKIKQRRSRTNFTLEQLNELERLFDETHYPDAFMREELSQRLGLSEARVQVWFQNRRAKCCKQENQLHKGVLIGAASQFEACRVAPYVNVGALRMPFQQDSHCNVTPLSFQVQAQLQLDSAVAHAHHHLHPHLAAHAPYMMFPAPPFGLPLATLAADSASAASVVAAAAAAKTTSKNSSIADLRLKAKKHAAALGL
SHOX2a (called SHOX2 in the paper), full-length, yeast two-hybrid fusion, O60902-1 L155V, sequence (O60902 whole entry L155V, the tested form may be a part): as the sequence (O60902 whole entry R196C, the tested form may be a part) above, with L155V, C196R counted along it
SHOX2a (called SHOX2 in the paper), full-length, yeast two-hybrid fusion, O60902-1 R218Q, sequence (O60902 whole entry R218Q, the tested form may be a part): as the sequence (O60902 whole entry R196C, the tested form may be a part) above, with C196R, R218Q counted along it
SHOX2a (called SHOX2 in the paper), full-length, yeast two-hybrid fusion, O60902-1 A269D, sequence (O60902 whole entry A269D, the tested form may be a part): as the sequence (O60902 whole entry R196C, the tested form may be a part) above, with C196R, A269D counted along it
SHOX2a (called SHOX2 in the paper), full-length, yeast two-hybrid fusion, O60902-1 R319P, sequence (O60902 whole entry R319P, the tested form may be a part): as the sequence (O60902 whole entry R196C, the tested form may be a part) above, with C196R, R319P counted along it
SHOX2a (called SHOX2 in the paper), full-length, yeast two-hybrid fusion, O60902-1 A193P, sequence (O60902 whole entry A193P, the tested form may be a part): as the sequence (O60902 whole entry R196C, the tested form may be a part) above, with A193P, C196R counted along it
SHOX2a (called SHOX2 in the paper), full-length, yeast two-hybrid fusion, O60902-1 K139E, sequence (O60902 whole entry K139E, the tested form may be a part): as the sequence (O60902 whole entry R196C, the tested form may be a part) above, with K139E, C196R counted along it

As to “SHOX2a (called SHOX2 in the paper), full-length, yeast two-hybrid fusion, O60902-1 A193P”, the percent of parent (% Interaction with SOX6) was determined as 8.
As for “SHOX2a (called SHOX2 in the paper), full-length, yeast two-hybrid fusion, O60902-1 A269D”, the figure is 87.
As for “SHOX2a (called SHOX2 in the paper), full-length, yeast two-hybrid fusion, O60902-1 K139E”, the percent of parent (% Interaction with SOX6) amounted to 44.
As for “SHOX2a (called SHOX2 in the paper), full-length, yeast two-hybrid fusion, O60902-1 L155V”, the figure is 10; as for “SHOX2a (called SHOX2 in the paper), full-length, yeast two-hybrid fusion, O60902-1 R196C”, 29.
In the case of “SHOX2a (called SHOX2 in the paper), full-length, yeast two-hybrid fusion, O60902-1 R218Q”, the percent of parent (% Interaction with SOX6) turned out to be 89.
As for “SHOX2a (called SHOX2 in the paper), full-length, yeast two-hybrid fusion, O60902-1 R319P”, the figure is 80.
